Laboratory results reported in US20030199671A1, “Binding molecules for Fc-region polypeptides” (priority 2001, published 2003).
Read-outs that look alike come from different tables or passages of the source. Positions of bridges follow the written chain, without caps; N, C: chain ends. Residues, ends and D or L forms follow the SMILES beside them.

What was measured:
Format in all cases: binding
IgG4 = IgG4 (Homo sapiens, UniProt P01861); set-up: all human subtypes derived from myeloma patients; purchased Calbiochem 400126; host or cells: myeloma patients; details: for % IgG Capture - Batch Binding, Human IgG4: Table 9, immobilized peptide, 5.0 mg/ml resin load; for Human IgG4 elu pH 8.5 (% of Total Load): elution 0.1 M sodium bicarbonate buffer
Summary of the method: (§1)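 Read-out is A280 of unbound IgG (1.4 mg/ml extinction coefficient), with percent bound derived against non-filtered or negative controls. Targets were incubated with immobilized peptides in PBST or TBST for 1-1.5 h at room temperature. Hydrolyzed Sepharose and immobilized Protein A serve as negative and positive controls.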

human IgG = test system: human IgG
Summary of the method: (§2)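 Steps: dilute IgG in PBST or TBST; incubate with immobilized peptide 1-1.5 h, RT; collect unbound by centrifugation; measure A280; wash three times; elute with 0.1 M sodium bicarbonate pH 8.5 and/or 0.1 M sodium citrate pH 4.0 for 30-60 min and quantitate.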

mouse IgG = test system: mouse IgG
Summary of the method: as §2

bovine IgG = details: Table 11; unfractionated IgG
Summary of the method: as §2

goat IgG = details: Table 11; unfractionated IgG
Summary of the method: as §2

human IgG1 = target: T1, human IgG1 (Homo sapiens, UniProt P01857); details: for % IgG Capture - Batch Binding, Human IgG1: Table 9, immobilized peptide, 5.0 mg/ml resin load; for Human IgG1 elu pH 8.5 (% of Total Load): elution 0.1 M sodium bicarbonate buffer; for Human IgG1 elu pH 4.0 (% of Total Load): elution 0.1 M sodium citrate buffer
T1 construct: all human subtypes derived from myeloma patients; purchased Calbiochem 400120; host or cells: myeloma patients
Summary of the method: (§3)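 Static binding, peptide resin + IgG, 1-1.5 h RT with shaking, PBST pH 7.2 or TBST pH 7.5. Flow-through read at A280 vs buffer blank; % bound = control minus unbound. Elution at pH 8.5 bicarbonate and/or pH 4.0 citrate, 30-60 min.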

human IgG2 = target: T2, human IgG2 (Homo sapiens, UniProt P01859); details: for Human IgG2 elu pH 8.5 (% of Total Load): elution 0.1 M sodium bicarbonate buffer; for Human IgG2 elu pH 4.0 (% of Total Load): elution 0.1 M sodium citrate buffer
T2 construct: all human subtypes derived from myeloma patients; purchased Calbiochem 400122; host or cells: myeloma patients
Summary of the method: as §1

IgG3 = IgG3 (Homo sapiens, UniProt P01860); set-up: all human subtypes derived from myeloma patients; purchased Calbiochem 400124; host or cells: myeloma patients; details: for % IgG Capture - Batch Binding, Human IgG3: Table 9, immobilized peptide, 5.0 mg/ml resin load; for Human IgG3 elu pH 4.0 (% of Total Load): elution 0.1 M sodium citrate buffer
Summary of the method: as §3

[1] = Table 14, average ligand density 1.8 μM/ml

T1 sequence (P01857 1-330 isoform P01857-1): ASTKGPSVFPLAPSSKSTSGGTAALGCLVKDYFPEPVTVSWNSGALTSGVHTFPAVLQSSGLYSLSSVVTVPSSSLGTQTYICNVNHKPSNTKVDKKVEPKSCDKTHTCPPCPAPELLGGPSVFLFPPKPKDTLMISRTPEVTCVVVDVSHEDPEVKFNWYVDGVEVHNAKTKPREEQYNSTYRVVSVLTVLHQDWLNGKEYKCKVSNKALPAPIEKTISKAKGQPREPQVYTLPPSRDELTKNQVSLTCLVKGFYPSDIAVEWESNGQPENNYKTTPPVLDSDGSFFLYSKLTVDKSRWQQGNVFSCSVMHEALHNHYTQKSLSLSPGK
IgG3, sequence (P01860 1-377 isoform P01860-1): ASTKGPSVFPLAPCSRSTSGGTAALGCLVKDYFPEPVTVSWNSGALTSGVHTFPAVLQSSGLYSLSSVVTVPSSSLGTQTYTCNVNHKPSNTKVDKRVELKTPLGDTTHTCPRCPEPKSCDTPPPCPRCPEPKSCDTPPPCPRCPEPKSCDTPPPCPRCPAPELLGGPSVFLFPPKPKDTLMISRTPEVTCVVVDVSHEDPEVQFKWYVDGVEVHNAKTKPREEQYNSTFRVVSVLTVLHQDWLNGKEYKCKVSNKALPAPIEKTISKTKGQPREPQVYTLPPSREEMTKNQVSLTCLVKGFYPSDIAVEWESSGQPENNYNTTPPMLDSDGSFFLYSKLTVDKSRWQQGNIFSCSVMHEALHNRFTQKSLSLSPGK
IgG4, sequence (P01861 1-327 isoform P01861-1): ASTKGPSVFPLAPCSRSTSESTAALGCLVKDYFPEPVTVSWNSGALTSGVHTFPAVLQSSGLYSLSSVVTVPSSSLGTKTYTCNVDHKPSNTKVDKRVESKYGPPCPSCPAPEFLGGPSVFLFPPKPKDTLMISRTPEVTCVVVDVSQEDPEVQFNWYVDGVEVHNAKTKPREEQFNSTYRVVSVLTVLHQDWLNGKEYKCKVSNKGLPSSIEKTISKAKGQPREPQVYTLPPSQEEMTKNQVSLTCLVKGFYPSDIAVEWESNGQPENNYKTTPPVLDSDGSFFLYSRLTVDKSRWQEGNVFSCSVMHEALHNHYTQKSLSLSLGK
T2 sequence (P01859 1-326 isoform P01859-1): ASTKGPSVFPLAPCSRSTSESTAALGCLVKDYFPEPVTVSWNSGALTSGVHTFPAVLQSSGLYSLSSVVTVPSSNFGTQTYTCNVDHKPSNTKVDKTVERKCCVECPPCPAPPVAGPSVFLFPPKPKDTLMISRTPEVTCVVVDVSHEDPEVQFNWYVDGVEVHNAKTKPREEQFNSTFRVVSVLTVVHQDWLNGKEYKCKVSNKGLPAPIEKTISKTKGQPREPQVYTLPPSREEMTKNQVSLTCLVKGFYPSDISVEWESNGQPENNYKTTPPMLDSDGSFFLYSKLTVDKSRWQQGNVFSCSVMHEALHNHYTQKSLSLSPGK

In the case of `CC(=O)NCC(=O)N[C@@H](CC(=O)O)C(=O)N[C@@H](CC(=O)O)C(=O)N[C@@H](CC(=O)O)C(=O)N[C@@H](Cc1c[nH]cn1)C(=O)N[C@H]1CSSC[C@@H](C(=O)N2CCC[C@H]2C(=O)N[C@@H](Cc2c[nH]cn2)C(=O)NCC(=O)N[C@@H](CCC(=O)O)C(=O)N2CCC[C@H]2C(=O)NCC(=O)N2CCC[C@H]2C(=O)N[C@@H](CCC(=O)O)C(=O)NCC(=O)NCC(=O)NCC(=O)N[C@@H](CCCCN)C(N)=O)NC(=O)[C@H](CCC(=O)O)NC(=O)[C@H](CO)NC(=O)[C@H](CC(N)=O)NC(=O)[C@H](Cc2ccccc2)NC(=O)[C@H](Cc2c[nH]c3ccccc23)NC(=O)[C@H](CCC(=O)O)NC(=O)[C@H](CCCNC(=N)N)NC(=O)[C@H](Cc2ccccc2)NC(=O)[C@H](Cc2c[nH]c3ccccc23)NC(=O)[C@H](Cc2ccc(O)cc2)NC1=O` [DX252] (Ac-GDDDHCYWFREWFNSECPHGEPGPEGGGK-NH2; disulfide 6-17 (inferred)), the “% IgG Capture - Batch Binding, Human IgG4” value (IgG4) was 6%, the “Human IgG4 bdg % (% of Total Load)” value (IgG4; Table 10, batch binding) was 14% and the “Human IgG4 elu pH 8.5 (% of Total Load)” value (IgG4; Table 10) was 4%. For the same compound, the “% IgG Capture - Batch Binding, Human IgG” value (human IgG; Table 11, unfractionated IgG) was 20%, the “% IgG Capture - Batch Binding, Mouse IgG” value (mouse IgG; Table 11, unfractionated IgG) was 1% and the “% IgG Capture - Batch Binding, Bovine IgG” value (bovine IgG) was 0%. For the same compound, the “% IgG Capture - Batch Binding, Goat IgG” value (goat IgG) was 0%, the “% IgG Capture - Batch Binding, Human IgG1” value (human IgG1) was 34% and the “Human IgG1 bdg % (% of Total Load)” value (human IgG1; Table 10, batch binding) was 37%. The “Human IgG1 elu pH 8.5 (% of Total Load)” value (human IgG1; Table 10) was 19%, the “Human IgG1 elu pH 4.0 (% of Total Load)” value (human IgG1; Table 10) was 30% and the “% IgG Capture - Batch Binding, Human IgG2” value (human IgG2; Table 9, immobilized peptide, 5.0 mg/ml resin load) was 24%. The “Human IgG2 bdg % (% of Total Load)” value (human IgG2; Table 10, batch binding) was 37%, the “Human IgG2 elu pH 8.5 (% of Total Load)” value (human IgG2; Table 10) was 8% and the “Human IgG2 elu pH 4.0 (% of Total Load)” value (human IgG2; Table 10) was 10%. For the same compound, the “% IgG Capture - Batch Binding, Human IgG3” value (IgG3) was 35%, the “Human IgG3 bdg % (% of Total Load)” value (IgG3; Table 10, batch binding) was 44% and the “Human IgG3 elu pH 8.5 (% of Total Load)” value (IgG3; Table 10, elution 0.1 M sodium bicarbonate buffer, pH 8.5) was 8%. The “Human IgG3 elu pH 4.0 (% of Total Load)” value (IgG3; Table 10) was 5%.
“Ac-GDRRACSRDWSGALVWCAGHEPGPEGGGK-NH2 (not fully specified (bridges); printed as Ac-GDRRACSRDWSGALVWCAGHEPGPEGGGK-NH2; cysteine pairing not given here) [DX253]” was tested, and the “% IgG Capture - Batch Binding, Human IgG4” value (IgG4) was 33%, the “Human IgG4 elu pH 8.5 (% of Total Load)” value (IgG4; Table 10) was 22% and the “hIgG4 elution pH 2.5 (% of Total Load)” value (IgG4; Table 13) was 49%. The “hIgG4 elution pH 3.0 (% of Total Load)” value (IgG4; Table 13) was 49%, the “hIgG4 elution pH 3.5 (% of Total Load)” value (IgG4; Table 13) was 53% and the “hIgG4 elution pH 4.5 (% of Total Load)” value (IgG4; Table 13) was 23%. The “hIgG4 elution pH 5.5 (% of Total Load)” value (IgG4; Table 13) was 4%, the “hIgG4 elution pH 9.0 (% of Total Load)” value (IgG4; Table 13) was 45% and the “hIgG4 elution pH 9.5 (% of Total Load)” value (IgG4; Table 13) was 62%. The “Batch Binding (% Capture of Total Load) hIgG4” value (IgG4; peptide immobilized on NHS activated sepharose 4 fast flow, target ligand density 2.0 μmole/ml, batch filterplate, hIgG4) was 58%, the “% IgG Capture - Batch Binding, Human IgG” value (human IgG; Table 11, unfractionated IgG) was 54% and the “% IgG Capture - Batch Binding, Human IgG” value (human IgG; [1]) was 71%. For the same compound, the “Batch Binding (% Capture of Total Load) hIgG” value (human IgG; peptide immobilized on NHS activated sepharose 4 fast flow, target ligand density 2.0 μmole/ml, batch filterplate, hIgG) was 79%, the “% IgG Capture - Batch Binding, Mouse IgG” value (mouse IgG; Table 11, unfractionated IgG) was 2% and the “% IgG Capture - Batch Binding, Mouse IgG” value (mouse IgG; [1]) was 2%. For the same compound, the “% IgG Capture - Batch Binding, Human IgG1” value (human IgG1) was 58%, the “Human IgG1 elu pH 8.5 (% of Total Load)” value (human IgG1; Table 10) was 44% and the “Human IgG1 elu pH 4.0 (% of Total Load)” value (human IgG1; Table 10) was 14%. The “hIgG1 elution pH 2.5 (% of Total Load)” value (human IgG1; Table 13) was 78%, the “hIgG1 elution pH 3.0 (% of Total Load)” value (human IgG1; Table 13) was 75% and the “hIgG1 elution pH 3.5 (% of Total Load)” value (human IgG1; Table 13) was 54%. The “hIgG1 elution pH 4.5 (% of Total Load)” value (human IgG1; Table 13) was 55%, the “hIgG1 elution pH 5.5 (% of Total Load)” value (human IgG1; Table 13) was 8% and the “hIgG1 elution pH 9.0 (% of Total Load)” value (human IgG1; Table 13) was 44%. For the same compound, the “hIgG1 elution pH 9.5 (% of Total Load)” value (human IgG1; Table 13) was 45%, the “Batch Binding (% Capture of Total Load) hIgG1” value (human IgG1; peptide immobilized on NHS activated sepharose 4 fast flow, target ligand density 2.0 μmole/ml, batch filterplate, hIgG1) was 88% and the “Human IgG2 elu pH 8.5 (% of Total Load)” value (human IgG2; Table 10) was 32%. The “Human IgG2 elu pH 4.0 (% of Total Load)” value (human IgG2; Table 10) was 12%, the “hIgG2 elution pH 2.5 (% of Total Load)” value (human IgG2; Table 13) was 78% and the “hIgG2 elution pH 3.0 (% of Total Load)” value (human IgG2; Table 13) was 69%. The “hIgG2 elution pH 3.5 (% of Total Load)” value (human IgG2; Table 13) was 55%, the “hIgG2 elution pH 4.5 (% of Total Load)” value (human IgG2; Table 13) was 31% and the “hIgG2 elution pH 9.0 (% of Total Load)” value (human IgG2; Table 13) was 42%. For the same compound, the “hIgG2 elution pH 9.5 (% of Total Load)” value (human IgG2; Table 13) was 47%, the “Batch Binding (% Capture of Total Load) hIgG2” value (human IgG2; peptide immobilized on NHS activated sepharose 4 fast flow, target ligand density 2.0 μmole/ml, batch filterplate, hIgG2) was 80% and the “% IgG Capture - Batch Binding, Human IgG3” value (IgG3) was 7%. The “Human IgG3 elu pH 4.0 (% of Total Load)” value (IgG3; Table 10) was 5%.
